Patent US20240109859

Target: T1, IRF3 wild-type (UniProt Q14653 Q14653:1-427)
T1 sequence: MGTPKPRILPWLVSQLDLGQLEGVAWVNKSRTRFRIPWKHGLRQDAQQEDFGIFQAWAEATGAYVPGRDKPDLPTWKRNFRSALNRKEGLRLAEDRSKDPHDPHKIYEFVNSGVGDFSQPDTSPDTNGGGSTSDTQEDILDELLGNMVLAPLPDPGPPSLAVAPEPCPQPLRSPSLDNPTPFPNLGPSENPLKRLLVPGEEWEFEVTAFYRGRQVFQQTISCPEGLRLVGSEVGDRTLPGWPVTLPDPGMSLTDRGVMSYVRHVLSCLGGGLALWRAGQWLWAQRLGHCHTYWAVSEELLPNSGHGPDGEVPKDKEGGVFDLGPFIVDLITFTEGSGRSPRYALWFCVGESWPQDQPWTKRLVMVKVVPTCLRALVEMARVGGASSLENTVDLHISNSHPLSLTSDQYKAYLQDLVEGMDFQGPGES
Assay: EMSA; 2.5 nM probe, 10 mM Tris pH 7.5, 50 mM NaCl, 2 mM DTT, room temperature 45 min; cold probe competition
Settings: tags: Flag, expressed in HEK293T; label: 32P
Protocol: Electrophoresis Mobility Shift Assay (EMSA). Flag-IRF3-WT and Flag-IRF3-N85D were purified from HEK293T cells. Binding reactions were carried out in 20 μl volumes containing: 2.5 nM P32 labeled DNA probe targeting IFN-β promoter (forward: […] (SEQ ID NO: 41); reverse: […]) (SEQ ID NO: 42); 10 mM Tris pH 7.5; 50 mM NaCl; 2 mM DTT and indicated purified Flag-IRF3-WT or Flag-IRF3-N85D. Unlabeled probe (cold probe) was used for competition assay. Reactions were incubated at room temperature for 45 min, and resolved in 6% polyacrylamide gels (29:1 crosslinking) with 0.5×TBE running buffer at […] on ice until the loading dye front reached the bottom of the gel. Gels were dried and analyzed using phosphorimaging instrumentation.

B1: IFN-beta promoter probe (dsDNA)
DNA 1: GCACCGCTAACCGAAACCGAAACTGTGC
DNA 2: GCACAGTTTCGGTTTCGGTTAGCGGTGC
binding result: binds
